Measurements as given in patent US5948668.

Assays:
[1] = target: recombinant rat procarboxypeptidase B expressed by plasmid pλProCPB (rat)
[2] = target: recombinant rat procarboxypeptidase B with the Cys290->Ser mutation, expressed by plasmid pProCPB-C (rat)

Substance: trypsin (enzyme)
- Specific Activity (u/mg) of CPB (Hippuryl-L-Arg substrate) after folding of ProCPB and trypsin treatment [1]: 42.9 u/mg
- Specific Activity (u/mg) of CPB-C (Hippuryl-L-Arg substrate) after folding of ProCPB-C and trypsin treatment [2]: 20.9 u/mg
